Measured values published in patent publication US6919086B1, “Graminae pollen allergen mutants for specific immunotherapy, and production and use of the same” (Merck Patent Gesellschaft mit, priority 1997, dated 2005).

B1: rPhl p 5b point mutant PM1 (N32D, D49L, K50A) (protein)
chain: ADAGYAPATPAAAGAAAGKATTEEQKLIEDIDVGFKAAVAAAASVPAALAFKTFEAAFTSSSKAAAAKAPGLVPKLDAAYSVAYKAAVGATPEAKFDSFVASLTEALRVIAGALEVHAVKPVTEEPGMAKIPAGELQIIDKIDAAFKVAATAAATAPADDKFTVFEAAFNKAIKESTGGAYDTYKCIPSLEAAVKQAYAATVAAAPQVKYAVFEAALTKAITAMSEVQKVSQPATGAATVAAGAATTAAGAASGAATVAAGGYKV
B2: DM1: deletion mutant of rPhl p 5b (ΔK50-P132, D49→L), SEQ ID NO 91 (protein)
chain: ADAGYAPATPAAAGAAAGKATTEEQKLIEDINVGFKAAVAAAASVPAALAGELQIIDKIDAAFKVAATAAATAPADDKFTVFEAAFNKAIKESTGGAYDTYKCIPSLEAAVKQAYAATVAAAPQVKYAVFEAALTKAITAMSEVQKVSQPATGAATVAAGAATTAAGAASGAATVAAGGYKV
B3: rPhl p 5b deletion mutant DM3 (deletion A154-T177, A220T) (protein)
chain: ADAGYAPATPAAAGAAAGKATTEEQKLIEDINVGFKAAVAAAASVPAADKFKTFEAAFTSSSKAAAAKAPGLVPKLDAAYSVAYKAAVGATPEAKFDSFVASLTEALRVIAGALEVHAVKPVTEEPGMAKIPAGELQIIDKIDAAFKVAATAAGGAYDTYKCIPSLEAAVKQAYAATVAAAPQVKYAVFEAALTKTITAMSEVQKVSQPATGAATVAAGAATTAAGAASGAATVAAGGYKV

How the values were obtained:
[1] = target: IgE antibodies of the allergic patient serum pool We 6/97; assay: EAST inhibition, serum pool We 6/97
[2] = target: IgE antibodies of the allergic patient serum pool Bor 18/100 (20 donors); assay: EAST inhibition, serum pool Bor 18/100
[3] = target: IgE antibodies of the individual allergic patient serum II/3; assay: EAST inhibition, individual serum II/3
[4] = system: Phl p 5b-reactive T cell clones (TCCs) from allergic patients; assay: Proliferative reaction of Phl p 5b-reactive T cell clones ([3H]-thymidine incorporation); format: cell-based, human; conditions: final concentration 0.3 μM; for Incorporation of [3H]-thymidine into TCC CB 2 (stimulation index class) / Incorporation of [3H]-thymidine into TCC CB 14 (stimulation index class) / Incorporation of [3H]-thymidine into TCC JR 13 (stimulation index class) / Incorporation of [3H]-thymidine into TCC JR 15 (stimulation index class): T cell-reactive region A; for Incorporation of [3H]-thymidine into TCC DW8 (stimulation index class) / Incorporation of [3H]-thymidine into TCC UZH2 (stimulation index class): T cell-reactive region B; for Incorporation of [3H]-thymidine, stimulation index SI, 3rd exp. / Incorporation of [3H]-thymidine, stimulation index class (last column, no head) / Incorporation of [3H]-thymidine, stimulation index SI, 1st exp. / Incorporation of [3H]-thymidine, stimulation index SI, 2nd exp.: T cell-reactive region C
Experimental: (§1) 40 ml of heparinized blood were obtained from each patient. Peripheral mononuclear cells (PBMC) were then isolated from this blood sample by means of the customary method using density gradient centrifugation. Analogous cell isolations were carried out at a later stage when it was necessary to obtain irradiated autologous antigen-presenting cells (APC) for characterizing the TCL and TCC further. After the PBMC had been counted, TCL which reacted to group 5 allergens in vitro were established as follows and as has already been described in detail elsewhere (Lit. 1): in each well of 24-well microculture plates, from 1.5 to 2.0×10^6 PBMC in 1 ml of culture medium (UltraCulture) were stimulated for 7 days in the added presence of natural Phl p5 allergens (in each case 10 μg/well) which had been purified by immunoaffinity chromatography. A total of from 8 to 10 of these cultures were set up. The isolation of Phl p5 by means of immunoaffinity chromatography has been described in detail (Lit. 2). At the end of the 7 days of culture, IL-2 (from 10 to 20 IU/well) was added to the cell cultures for a further 5 to 7 days. All the individual cultures were then pooled and the T cell blasts were enriched by means of density gradient centrifugation; the TCL which were obtained were then tested in a specific lymphocyte proliferation test (see Lit. 1 as well). For this, 2×10^4/ml TCL blasts were in each case cultured with 5×10^4/ml irradiated autologous APCs in triplicate samples in 96-well microculture plates. 10-20 μg of Phl p5 allergen were added as the specific antigen stimulus. After 56 hours of incubation, ^3H-labelled thymidine (1 μCi/well) was pipetted into the microcultures. After a further 16 hours, the radioactivity which had been incorporated into the proliferating T cell blasts was measured in a beta counter (Matrix 96). The results were calculated, as the arithmetic mean of the multiple samples, in counts per minute (cpm). The criterion for the quality of the TCL was the stimulation index, which was obtained by relating the cpm values with Phl p5 addition to those without Phl p5 addition.
After a TCL had been cloned (see below), the specificity of the isolated TCCs were determined as has just been described. Stimulation indices of at least 5 were rated as being positive for the TCCs. The determination of T cell epitopes for defining the T cell-reactive regions on group 5 allergens was also carried out using specific proliferation tests, with 1-2 μg of synthesized dodecapeptide/ml being used for this purpose in each case (see below).
The reactivity of the recombinant Ph1 p 5b mutants was tested on established T cell clones (TCCs) of known specificity. The TCCs derive from patients who are allergic to grass pollen (see Ex. 1) and are directed against the T cell-reactive regions A (FIG. 7), B (FIG. 8) and C (FIG. 9). The T cell reactivity was measured by stimulating the clones to proliferate.

[5] = system: Phl p 5b-reactive T cell lines (TCLs) from allergic patients; assay: Proliferative reaction of Phl p 5b-reactive oligoclonal T cell lines ([3H]-thymidine incorporation); format: cell-based, human; conditions: for Incorporation of [3H]-thymidine into TCL 5 17.4 (stimulation index class): primary stimulator r Phl p 5; for Incorporation of [3H]-thymidine into TCL 6 Mah (stimulation index class): primary stimulator r Phl p 5a, r Phl p 5b; for Incorporation of [3H]-thymidine into TCL 7 19.2 (stimulation index class) / Incorporation of [3H]-thymidine into TCL 8 20.1 (stimulation index class): primary stimulator r Phl p 5b
Experimental: In the second phase, oligoclonal T cell lines, which have been established by repeated stimulation with the relevant allergens, are employed for the testing. Once again, only those modified recombinant allergens which at least give rise to a stimulation index (SI) of 50% of the SI of the wild type are taken into consideration.
as §1
The oligoclonal T cell lines (TCLs) from 8 patients who were allergic to grass pollen (see Ex. 1) were established by repeated activation with natural Ph1 p 5b (a+b) or recombinant rPh1 p 5b or 5a+5b.
The proliferative reaction of these TCLs was tested using the rPh1 p 5b mutants (FIG. 10).

[6] = target: IgE antibodies of the individual allergic patient serum II/17; assay: EAST inhibition, individual serum II/17
[7] = primary stimulator n Phl p 5, secondary activator 0.3 μM

Molecule | IC50 [1] | allergenic potency (Prel) at 25% inhibition (relative to native Phl p 5b) [1] | allergenic potency (Prel) at 50% inhibition (relative to native Phl p 5b) [1] | inhibition value (inhibitor concentration at 25% inhibition) [1] | IC50 [2] | allergenic potency (Prel) at 25% inhibition (relative to native Phl p 5b) [2] | allergenic potency (Prel) at 50% inhibition (relative to native Phl p 5b) [2] | inhibition value (inhibitor concentration at 25% inhibition) [2] | IC50 [3] | allergenic potency (Prel) at 25% inhibition (relative to native Phl p 5b) [3] | Incorporation of [3H]-thymidine into TCC JR 13 (stimulation index class) [4] | Incorporation of [3H]-thymidine into TCC JR 15 (stimulation index class) [4] | Incorporation of [3H]-thymidine into TCC DW8 (stimulation index class) [4] | Incorporation of [3H]-thymidine into TCC UZH2 (stimulation index class) [4] | Incorporation of [3H]-thymidine, stimulation index SI, 3rd exp. [4] | Incorporation of [3H]-thymidine, stimulation index class (last column, no head) [4] | Incorporation of [3H]-thymidine into TCL 5 17.4 (stimulation index class) ([5]; secondary activator 0.3 μM) | Incorporation of [3H]-thymidine into TCL 6 Mah (stimulation index class) ([5]; secondary activator 0.3 μM) | Incorporation of [3H]-thymidine into TCL 7 19.2 (stimulation index class) ([5]; secondary activator 0.3 μM) | Incorporation of [3H]-thymidine into TCL 8 20.1 (stimulation index class) ([5]; secondary activator 0.3 μM) | further results
B1 | 0.12 µM | 0.415 | 0.051 | 1.2e-09 mol/L | 0.012 µM | 0.739 | 0.349 | 4.5e-10 mol/L | 0.019 µM | 0.595 | +++ (>10 (+++)) | ++ (5-10 (++)) | + (1-2 (+)) | +++ (>10 (+++)) | 1.1 | − (<1 (−)) | + (1-2 (+)) | ++ (5-10 (++)) | +++ (>10 (+++)) | +++ (>10 (+++)) | allergenic potency (Prel) at 50% inhibition (relative to native Phl p 5b) [3]: 0.314; inhibition value (inhibitor concentration at 25% inhibition) [3]: 8.6e-10 mol/L; Incorporation of [3H]-thymidine into TCC CB 2 (stimulation index class) [4]: +++ (>10 (+++)); Incorporation of [3H]-thymidine into TCC CB 14 (stimulation index class) [4]: +++ (>10 (+++)); Incorporation of [3H]-thymidine into TCL 1 Wöl (stimulation index class) [5, 7]: + (1-2 (+)); Incorporation of [3H]-thymidine into TCL 3 Fre (stimulation index class) [5, 7]: + (1-2 (+)); IC50 [6]: 0.0022 µM; allergenic potency (Prel) at 25% inhibition (relative to native Phl p 5b) [6]: 0.336; allergenic potency (Prel) at 50% inhibition (relative to native Phl p 5b) [6]: 0.119; inhibition value (inhibitor concentration at 25% inhibition) [6]: 6.4e-10 mol/L
B2 | – | – | – | – | – | – | – | – | – | – | +++ (>10 (+++)) | +++ (>10 (+++)) | + (1-2 (+)) | +++ (>10 (+++)) | 4.4 | ++ (5-10 (++)) | + (1-2 (+)) | ++ (5-10 (++)) | +++ (>10 (+++)) | +++ (>10 (+++)) | Incorporation of [3H]-thymidine into TCC CB 2 (stimulation index class) [4]: +++ (>10 (+++)); Incorporation of [3H]-thymidine into TCC CB 14 (stimulation index class) [4]: +++ (>10 (+++)); Incorporation of [3H]-thymidine, stimulation index SI, 1st exp. [4]: 8.6; Incorporation of [3H]-thymidine, stimulation index SI, 2nd exp. [4]: 6.2; Incorporation of [3H]-thymidine into TCL 2 Eic (stimulation index class) [5, 7]: + (1-2 (+)); Incorporation of [3H]-thymidine into TCL 3 Fre (stimulation index class) [5, 7]: + (1-2 (+)); Incorporation of [3H]-thymidine into TCL 4 Mer (stimulation index class) [5, 7]: + (1-2 (+))
B3 | 0.029 µM | 0.099 | 0.002 | 5.1e-09 mol/L | 4.1 µM | 0.028 | 0.0001 | 1.2e-09 mol/L | 32000 µM | 0.0004 | +++ (>10 (+++)) | +++ (>10 (+++)) | + (1-2 (+)) | +++ (>10 (+++)) | 4.4 | ++ (5-10 (++)) | ++ (5-10 (++)) | +++ (>10 (+++)) | +++ (>10 (+++)) | +++ (>10 (+++)) | allergenic potency (Prel) at 50% inhibition (relative to native Phl p 5b) [3]: 1.8e-07; inhibition value (inhibitor concentration at 25% inhibition) [3]: 1.1e-06 mol/L; Incorporation of [3H]-thymidine, stimulation index SI, 1st exp. [4]: 9.8; Incorporation of [3H]-thymidine, stimulation index SI, 2nd exp. [4]: 6.9; Proliferative reaction of TCLs (in words) ([5]; TCLs from 8 patients allergic to grass pollen): strong specific stimulation with most of the TCLs; Incorporation of [3H]-thymidine into TCL 2 Eic (stimulation index class) [5, 7]: + (1-2 (+)); Incorporation of [3H]-thymidine into TCL 4 Mer (stimulation index class) [5, 7]: ++ (5-10 (++)); IC50 [6]: 0.05 µM; allergenic potency (Prel) at 25% inhibition (relative to native Phl p 5b) [6]: 0.038; allergenic potency (Prel) at 50% inhibition (relative to native Phl p 5b) [6]: 0.0005; inhibition value (inhibitor concentration at 25% inhibition) [6]: 5.6e-09 mol/L
